Data published in patent US20100291088A1 (published 2010).

Target: (4C/A)-huIL-18 (human, UniProt Q14116 37-193)
Assay: cell-based or functional assay

B1: IL-18BP-Fc (Fc fusion, UniProt O95998 31-194, looked up, not shown: a dimerising Fc or GST)
chain: TPVSQTTTAATASVRSTKDPCPSQPPVFPAAKQCPALEVTWPEVEVPLNGTLSLSCVACSRFPNFSILYWLGNGSFIEHLPGRLWEGSTSRERGSTGTQLCKALVLEQLTPALHSTNFSCVLVDPEQVVQRHVVLAQLWAGLRATLPPTQEALPSSHSSPQQQG
  KG-1 neutralization potency in vitro (IC50, nM): 0.03 nM
